Measurements reported in publication PMC7778609.

Experiments:
[1] = target: human FcγRIIb extracellular domain with AviTag and 6×his tag (human) (UniProt P31994); assay: SPR; Biacore T200, HBS-EP+ buffer, 20 °C; 500 nM his-tagged FcγR extracellular domains captured by anti-his antibody on a CM5 chip; twofold serially diluted antibody variants injected (120 s association, 130 s dissociation, 30 μL/min); 1:1 binding kinetics model or steady state affinity model
[2] = target: human FcγRIIa^H131 extracellular domain with AviTag and 6×his tag (human) (UniProt P12318); assay: as above
Sequence of human FcγRIIa^H131 extracellular domain with AviTag and 6×his tag (human) (P12318 34-217): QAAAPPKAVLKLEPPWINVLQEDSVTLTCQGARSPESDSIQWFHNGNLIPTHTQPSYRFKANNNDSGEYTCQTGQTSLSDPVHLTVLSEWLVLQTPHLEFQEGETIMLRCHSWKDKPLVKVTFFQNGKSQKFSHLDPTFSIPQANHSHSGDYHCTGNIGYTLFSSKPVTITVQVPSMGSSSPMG

[3] = target: human FcγRIIa^R131 extracellular domain with AviTag and 6×his tag (human); assay: as above
[4] = target: human FcγRIIIa^F158 extracellular domain with AviTag and 6×his tag (human) (UniProt P08637); assay: as above
Sequence of human FcγRIIIa^F158 extracellular domain with AviTag and 6×his tag (human) (P08637 17-208): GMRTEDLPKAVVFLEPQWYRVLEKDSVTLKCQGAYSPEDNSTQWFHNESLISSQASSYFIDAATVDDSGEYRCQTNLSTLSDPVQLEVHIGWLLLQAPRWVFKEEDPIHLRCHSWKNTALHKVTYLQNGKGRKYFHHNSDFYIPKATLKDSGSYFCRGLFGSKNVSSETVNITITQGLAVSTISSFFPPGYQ

[5] = target: human FcγRIIIa^V158 extracellular domain with AviTag and 6×his tag (human); assay: as above
[6] = target: human FcRn, his-tagged (human) (UniProt P55899); assay: SPR; as a1, his-tagged FcRn captured by anti-his antibody, antibody variants injected; pH 6
Sequence of human FcRn, his-tagged (human) (P55899 24-297): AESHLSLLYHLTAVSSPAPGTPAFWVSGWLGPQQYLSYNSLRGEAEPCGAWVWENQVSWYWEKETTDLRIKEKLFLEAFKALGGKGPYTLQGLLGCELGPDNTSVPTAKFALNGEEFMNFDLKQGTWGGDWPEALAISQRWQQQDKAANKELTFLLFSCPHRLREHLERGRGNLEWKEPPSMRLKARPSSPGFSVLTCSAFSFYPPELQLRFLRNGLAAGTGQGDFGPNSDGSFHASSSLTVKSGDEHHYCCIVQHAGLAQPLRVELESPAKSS

[7] = target: human FcγRI extracellular domain, his-tagged (human) (UniProt P12314); assay: SPR; Biacore T200, HBS-EP+ buffer, 20 °C; 500 nM his-tagged FcγR extracellular domains captured by anti-his antibody on a CM5 chip; twofold serially diluted antibody variants injected (120 s association, 130 s dissociation, 30 μL/min); 1:1 binding kinetics model or steady state affinity model
Sequence of human FcγRI extracellular domain, his-tagged (human) (P12314 16-292): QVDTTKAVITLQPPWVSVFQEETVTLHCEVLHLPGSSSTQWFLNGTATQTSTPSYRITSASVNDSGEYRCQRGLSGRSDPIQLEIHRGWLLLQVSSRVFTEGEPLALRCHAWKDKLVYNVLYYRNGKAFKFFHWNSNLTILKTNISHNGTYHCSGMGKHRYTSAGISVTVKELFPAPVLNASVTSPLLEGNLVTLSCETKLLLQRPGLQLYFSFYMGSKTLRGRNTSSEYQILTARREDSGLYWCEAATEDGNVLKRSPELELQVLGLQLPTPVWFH

Sequence of human FcγRIIb extracellular domain with AviTag and 6×his tag (human) (P31994 43-217): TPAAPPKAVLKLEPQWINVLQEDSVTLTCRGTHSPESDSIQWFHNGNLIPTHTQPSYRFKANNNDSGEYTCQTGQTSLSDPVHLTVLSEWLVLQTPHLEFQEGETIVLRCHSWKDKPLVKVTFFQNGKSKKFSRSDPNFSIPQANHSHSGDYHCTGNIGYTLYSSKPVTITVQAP

| Substance | Kd [1] | Kd [2] | Kd [3] | Kd [4] | Kd [5] | Kd [6] | Kd [7] |
| --- | --- | --- | --- | --- | --- | --- | --- |
| defucosylated trastuzumab with Fc variant H268E/K326M/I332E (antibody) | 1.03 µM | 1.04 µM | 0.42 µM | 0.00355 µM | 0.00171 µM |  |  |
| fucosylated trastuzumab with wild-type Fc (antibody) | 1.24 µM | 1 µM | 1.5 µM | 0.174 µM | 0.0385 µM |  |  |
| rituximab with Fc variant H268E/A330T/I332E (antibody) | 0.906 µM | 0.627 µM | 0.575 µM | 0.156 µM | 0.0611 µM | 0.0215 µM | 0.00564 µM |
| rituximab with Fc variant H268E/A330Y/I332D (antibody) | 1.47 µM | 0.526 µM | 0.68 µM | 0.094 µM | 0.0606 µM | 0.0219 µM | 0.00504 µM |
| rituximab with Fc variant H268E/K326M/I332E (antibody) | 1.05 µM | 0.882 µM | 0.738 µM |  | 0.0691 µM | 0.026 µM | 0.00515 µM |
| rituximab with Fc variant H268E/K326S/I332E (antibody) | 1.13 µM | 0.814 µM | 0.803 µM | 0.151 µM | 0.0747 µM | 0.025 µM | 0.00518 µM |

Next, values leading:

| Kd [1] | Kd [2] | Kd [3] | Kd [4] | Kd [5] | Kd [6] | Kd [7] | Substance |
| --- | --- | --- | --- | --- | --- | --- | --- |
| 1.46 µM | 0.669 µM | 0.369 µM | 0.00262 µM | 0.00136 µM |  |  | defucosylated trastuzumab with Fc variant H268E/K326S/I332E (antibody) |
| 1.78 µM | 2.09 µM | 1.46 µM | 0.0465 µM | 0.0123 µM |  |  | defucosylated trastuzumab with wild-type Fc (antibody) |
| 1.69 µM | 1.95 µM | 1.21 µM | 0.311 µM | 0.143 µM | 0.0257 µM | 0.00611 µM | rituximab with Fc variant H268E/K326I/I332E (antibody) |
| 2.41 µM | 1.09 µM | 1.25 µM | 0.944 µM | 0.403 µM | 0.021 µM | 0.00867 µM | rituximab with wild-type Fc (antibody) |
